Assay results taken from patent US20240383994A1 (CHIA TAI TIANQING PHARMACEUTICAL GROUP, published 2024).
Read-outs that look alike come from different tables or passages of the source.

Legend:
[1] = target: T1, human CD40 (hCD40), full length, on cells (human, UniProt P25942 21-277); assay: cell-based or functional assay
[2] = target: T1, human CD40 (hCD40), full length, on …; assay: flow cytometry (MFI) on CHO-K1-hCD40 cells, PE anti-human IgG detection
[3] = target: T2, hCD40-mFc (human); assay: flow cytometry, blocking of hCD40-mFc (2 µg/mL) binding to CHO-K1-hCD40L cells
T2 construct: Prepared in-house in CHO cells; also called human CD40 recombinant protein containing a mouse antibody heavy chain Fc; Human CD40-mFc
Procedure: A CHO-K1-hCD40L cell suspension and a CHO-K1-CynoCD40L cell suspension at a cell concentration of 3×10⁵ cells/mL were separately added into a 96-well U-bottom plate at 100 μL/well. An hCD40-mFc protein at a final concentration of 2 μg/mL (prepared in-house, SEQ ID NO: 64) or a cynoCD40-mFc protein at a final concentration of 2 μg/mL (prepared in-house, SEQ ID NO: 65) was added correspondingly, before serially 2-fold diluted anti-CD40 antibodies in a final concentration range of 312.5 ng/ml-40000 ng/ml were added. The mixture was mixed well, and then incubated at 4° C. for 1 h. The cells were washed with PBS containing 2% of FBS, and then a PE-conjugated goat anti-mouse IgG (H+L) antibody (Abcam, Cat. No.: ab97041) diluted at a volume ratio of 1:500 was added, and the mixture was incubated at 4° C. for 0.5 h. The cells were washed with PBS containing 2% of […], and then resuspended in PBS containing 2% of FBS. The fluorescence signals were detected on a flow cytometer (Sartorius IQue3). The activity of anti-CD40 antibodies to block the binding of CHO-K1-hCD40L cells to an hCD40-mFc protein and CHO-K1-cynoCD40L cells to a cynoCD40-mFc protein was analyzed by the mean fluorescence intensity (MFI) of staining, and the IC₅₀ value was calculated by GraphPad Prism software.

[4] = target: T1, human CD40 (hCD40), full length, on …; assay: cell-based or functional assay; remark: listed apart in the source
[5] = target: T3, hCD40-His protein (Acro, Cat. No.: CD0-H5228) (human, UniProt P25942 21-193); assay: BLI (Fortebio Octet RED96e), antibody captured on AHC sensor, antigen 1.56-100 nM, 1:1 model
T3 construct: Bought protein; also called human CD40 antigen; not shown: His tag
Procedure: (§1) The affinity of humanized anti-CD40 antibodies to an hCD40-His protein (Acro, Cat. No.: CD0-H5228) and a CynoCD40-His protein (Acro, Cat. No.: CD0-C52H6) was detected by a ForteBio molecular interaction system. Firstly, an AHC biosensor (Fortebio, Cat. No.: 18-5060) was activated, and then immersed in an anti-CD40 antibody solution at a final concentration of 5 μg/mL to capture the antibodies. Serially 2-fold diluted hCD40-His protein and CynoCD40-His protein in a final concentration range of 1.56 nM-100 nM were then […] the AHC biosensor. The response signals were detected in real time on a Fortebio molecular interaction system (Fortebio Octet RED96e) to give association and dissociation curves. After the completion of dissociation in each cycle, the AHC biosensor was regenerated for the next capture; the procedure was repeated until the affinity of the different antibodies for CD40 was determined. The resulting data were analyzed by Fortebio Data Analysis 11.0 software using a 1:1 (Langmuir) binding model to determine the Kₐ (Kₒₙ) and Kd (Kdis) values, and the dissociation constant KD was calculated by KD=Kd/Kₐ. See www.fortebio.com for more detailed detection procedures and related information.

[6] = target: T4, CynoCD40-His protein (Acro, Cat. No.: CD0-C52H6) (cynomolgus monkey, UniProt P25942 21-193 (human entry)); assay: as above
T4 construct: Bought protein; also called cynomolgus monkey CD40 antigen; not shown: His tag
T4 chain: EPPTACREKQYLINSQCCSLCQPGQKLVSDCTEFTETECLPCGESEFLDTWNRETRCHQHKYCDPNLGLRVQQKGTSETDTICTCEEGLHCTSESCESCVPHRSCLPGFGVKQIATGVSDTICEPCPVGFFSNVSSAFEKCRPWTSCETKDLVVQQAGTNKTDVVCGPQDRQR
Procedure: as §1

[7] = target: T1, human CD40 (hCD40), full length, on …; assay: cell-based or functional assay; remark: listed apart in the source
[8] = target: T1, human CD40 (hCD40), full length, on …; assay: flow cytometry (MFI) on 293T-hCD40-NFκB cells, PE anti-human IgG detection
[9] = target: T1, human CD40 (hCD40), full length, on …; assay: cell-based or functional assay; remark: listed apart in the source

B1: Chi-A01 (antibody, human IgG4 S228P, kappa, V domains shown)
VH: QVQLKESGPGLVAPSQSLSITCTVSGFSLPTSGVHWVRQPPGKGLEWLGVIWAGGDTNYNSALMSRLSISKDNSKSQVFLKMNSLQKDDTAIYYCLGHGHFDVWGAGTTVTVSS
VL: DVVMTQTPLSLPVSLGDQASISCRSSQSLVHSSGNTYLQWYLQKPGQSPGLLIYKVSNRFSGVPDRFSGSGSGTDFTLKISRVEAEDLGVYFCSQTTHVPWTFGGGTKLEIKR
notes: also called chimeric A01
Q: With B1 as the binder, how does the “IC50, inhibition of Ramos cell apoptosis induced by CD40L and IL-4” value [1] read?
A: 4.13 pM

Q: And the “Inhibition, % of Ramos cell apoptosis at 0.0128 ng/mL” value [1]?
A: 11%

Q: And the “Inhibition, % of Ramos cell apoptosis at 0.064 ng/mL” value [1]?
A: 10%

Q: What about the “Inhibition, % of Ramos cell apoptosis at 0.32 ng/mL” value [1] of the same binder?
A: 39%

Q: What about the “Inhibition, % of Ramos cell apoptosis at 1.6 ng/mL” value [1] of the same binder?
A: 79%

Q: What about the “Inhibition, % of Ramos cell apoptosis at 8 ng/mL” value [1] of the same binder?
A: 101%

Q: And the “Inhibition, % of Ramos cell apoptosis at 40 ng/mL” value [1]?
A: 99%

Q: What about the “Inhibition, % of Ramos cell apoptosis at 200 ng/mL” value [1] of the same binder?
A: 101%

Q: What about the “Inhibition, % of Ramos cell apoptosis at 1000 ng/mL” value [1] of the same binder?
A: 100%

Q: And the EC50 [2]?
A: 430 pM

Q: What about the IC50 [3] of the same binder?
A: 21300 pM

Q: And the “IC50 (read off the curve); NF-κB luciferase reporter (RLU), 293T-hCD40-NFκB cells co-cultured 1:1 with CHO-K1-hCD40L cells” value [4]?
A: ~0.6 ng/mL

Q: And the Kd [5]?
A: 153 pM

Q: And the koff [5]?
A: 0.000283 s⁻¹

Q: What about the kon [5] of the same binder?
A: 1.85e+06 M⁻¹ s⁻¹

Q: And the Kd [6]?
A: 162 pM

Q: What about the koff [6] of the same binder?
A: 0.000276 s⁻¹

Q: And the kon [6]?
A: 1.7e+06 M⁻¹ s⁻¹

Q: And the “IC50, inhibition of Ramos cell apoptosis induced by CD40L and IL-4” value [7]?
A: 5.08 pM

Q: What about the “Inhibition, % of Ramos cell apoptosis at 0.064 ng/L (so in the source)” value [7] of the same binder?
A: 0%

Q: What about the “Inhibition, % of Ramos cell apoptosis at 0.32 ng/L (so in the source)” value [7] of the same binder?
A: 17%

Q: And the “Inhibition, % of Ramos cell apoptosis at 1.6 ng/L (so in the source)” value [7]?
A: 82%

Q: What about the “Inhibition, % of Ramos cell apoptosis at 8 ng/L (so in the source)” value [7] of the same binder?
A: 96%

Q: What about the “Inhibition, % of Ramos cell apoptosis at 40 ng/L (so in the source)” value [7] of the same binder?
A: 95%

Q: What about the “Inhibition, % of Ramos cell apoptosis at 200 ng/L (so in the source)” value [7] of the same binder?
A: 96%

Q: What about the “Inhibition, % of Ramos cell apoptosis at 1000 ng/L (so in the source)” value [7] of the same binder?
A: 95%

Q: And the “EC50 (read off the curve)” value [8]?
A: ~2 ng/mL

B2: Iscalimab (CFZ533) (antibody, human IgG1, kappa, N297A, V domains shown)
VH: QVQLVESGGGVVQPGRSLRLSCAASGFTFSSYGMHWVRQAPGKGLEWVAVISYEESNRYHADSVKGRFTISRDNSKITLYLQMNSLRTEDTAVYYCARDGGIAAPGPDYWGQGTLVTVSS
VL: DIVMTQSPLSLTVTPGEPASISCRSSQSLLYSNGYNYLDWYLQKPGQSPQVLISLGSNRASGVPDRFSGSGSGTDFTLKISRVEAEDVGVYYCMQARQTPFTFGPGTKVDIRR
notes: also called BM; benchmark
Q: Which results are given for B2?
A: IC50, inhibition of Ramos cell apoptosis induced by CD40L and IL-4 [1]: 24.7 pM; Inhibition, % of Ramos cell apoptosis at 0.0128 ng/mL [1]: -26%; Inhibition, % of Ramos cell apoptosis at 0.064 ng/mL [1]: -24%; Inhibition, % of Ramos cell apoptosis at 0.32 ng/mL [1]: -10%; Inhibition, % of Ramos cell apoptosis at 1.6 ng/mL [1]: 5%; Inhibition, % of Ramos cell apoptosis at 8 ng/mL [1]: 72%; Inhibition, % of Ramos cell apoptosis at 40 ng/mL [1]: 98%; Inhibition, % of Ramos cell apoptosis at 200 ng/mL [1]: 100%; Inhibition, % of Ramos cell apoptosis at 1000 ng/mL [1]: 101%; EC50 [2]: 360 pM; IC50 [3]: 20600 pM; MFI value (CD95 on Ramos cells), Fc crosslinking with anti-human IgG Fcγ antibody, 1 µg/mL antibody [9]: 12500 MFI; MFI value (CD95 on Ramos cells), Fc crosslinking with anti-human IgG Fcγ antibody, 10 µg/mL antibody [9]: 12100 MFI; IC50 (read off the curve); NF-κB luciferase reporter (RLU), 293T-hCD40-NFκB cells co-cultured 1:1 with CHO-K1-hCD40L cells [4]: ~8 ng/mL; Kd [5]: 118 pM; koff [5]: 5.61e-05 s⁻¹; kon [5]: 474000 M⁻¹ s⁻¹; Kd [6]: 55.9 pM; koff [6]: 4.3e-05 s⁻¹; kon [6]: 769000 M⁻¹ s⁻¹; IC50, inhibition of Ramos cell apoptosis induced by CD40L and IL-4 [7]: 18.3 pM; Inhibition, % of Ramos cell apoptosis at 0.064 ng/L (so in the source) [7]: 4%; Inhibition, % of Ramos cell apoptosis at 0.32 ng/L (so in the source) [7]: 12%; Inhibition, % of Ramos cell apoptosis at 1.6 ng/L (so in the source) [7]: 41%; Inhibition, % of Ramos cell apoptosis at 8 ng/L (so in the source) [7]: 85%; Inhibition, % of Ramos cell apoptosis at 40 ng/L (so in the source) [7]: 97%; Inhibition, % of Ramos cell apoptosis at 200 ng/L (so in the source) [7]: 99%; Inhibition, % of Ramos cell apoptosis at 1000 ng/L (so in the source) [7]: 98%; EC50 (read off the curve) [8]: ~10 ng/mL
